Here are results for 39 sequences from the supplement of paper PMC7877785.

± gives the uncertainty stated by the source.

The nature of this data set: self-splicing fitness, log relative to wild type (ln ratio); higher = more splicing; Tetrahymena group I intron in knt gene, E. coli kanamycin selection, DiMSum; sequences stand for … in CUCUCU…GGAGGGAAAAGUUAUCAGGCAUGCACCUGGUAGCUAGUCUUUAAACCAAUAGAUUGCAUCGGUUUAAAAGGCAAGACCGUCAAAUUGCGGGAAAGGGGUCAACAGCCGUUCAGUACCAAGUCUCAGGGGAAACUUUGAGAUGGCCUUGCAAAGGGUAUGGUAAUAAGCUGACGGACAUGGUCCUAACCACGCAGCCAAGUCCUAAGUCAACAGAUCUUCUGUUGAUAUGGAUGCAGUUCACAGACUAAAUGUCGGUCGGGGAAGAUGUAUUCUUCUCAUAAGAUAUAGUCGGACCUCUCCUUAAUGGGAGCUAGCGGAUGAAGUGAUGCAACACUGGAGCCGCUGGGAACUAAUUUGUAUGCGAAAGUAUAUUGAUUAGUUUUGGAGUACUCGUGGUCG
A digest of the protocol:
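DiMSum derived fitness as the error-weighted combination of fold changes across replicates, kanamycin versus no kanamycin, normalised to wild type. E. coli BL21(DE3) held the library, which randomised all eight P1ex-region intron nucleotides within the knt kanamycin-resistance gene on pET-22b(+). Six replicate transformations grew overnight at 37°C or 30°C on LB agar with or without 25 μg/mL kanamycin, also containing 100 μg/mL carbenicillin, 50 μM IPTG and 0.2% rhamnose, and pooled colonies were amplicon-sequenced on an Illumina HiSeq 2500.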

As to GCGUAGCAAUAUUACGGCUU, the “self-splicing fitness (ln)” value (30 °C) was -1.21 ± 0.11 and the “self-splicing fitness (ln)” value (37 °C) was -0.0921 ± 0.14.
The matching figures for CGUGAGCAAUAUUACGUAUU: -3.5 ± 0.4 and -3.11 ± 0.35.
Turning to CGGAAGCAAUAUUACGGCUG, the “self-splicing fitness (ln)” value (30 °C) is -1.79 ± 0.094 and the “self-splicing fitness (ln)” value (37 °C) was -1.36 ± 0.099.
For the sequence CUCAAGCAAUAUUACGAAUG, the “self-splicing fitness (ln)” value reads like this: (30 °C) -2.96 ± 0.15; (37 °C) -1.66 ± 0.2.
The matching figures for UGUGAGCAAUAUUACGUCCU: -0.548 ± 0.1 and -1.51 ± 0.18.
The matching figures for UGGCAGCAAUAUUACGUACA: 0.117 ± 0.071 and 0.116 ± 0.1.
AGGAAGCAAUAUUACGCACU: the “self-splicing fitness (ln)” value was -0.845 ± 0.22 (30 °C) and -1.35 ± 0.29 (37 °C).
For the sequence UGGCAGCAAUAUUACGGUAG, the “self-splicing fitness (ln)” value was -0.874 ± 0.062 (30 °C) and -0.684 ± 0.084 (37 °C).
As for CACAAGCAAUAUUACGCCAC, the “self-splicing fitness (ln)” value (37 °C) is -1.43 ± 0.43.
Take CCACAGCAAUAUUACGGCUC: the “self-splicing fitness (ln)” value runs as follows: (30 °C) -3.39 ± 0.18; (37 °C) -1.79 ± 0.16.
Regarding UACUAGCAAUAUUACGACUU, the “self-splicing fitness (ln)” value (30 °C) was -1.27 ± 0.08 and the “self-splicing fitness (ln)” value (37 °C) is -0.271 ± 0.11.
With CGAAAGCAAUAUUACGUUCU, the “self-splicing fitness (ln)” value was -0.581 ± 0.075 (30 °C) and 0.092 ± 0.1 (37 °C).
As to CAUUAGCAAUAUUACGGCGC, the “self-splicing fitness (ln)” value is -2.01 ± 0.3 (30 °C) and -0.0545 ± 0.24 (37 °C).
The corresponding values for AUAAAGCAAUAUUACGUUUC are -3.83 ± 0.23 and -2.64 ± 0.33.
UGCCAGCAAUAUUACGCUUG: the “self-splicing fitness (ln)” value was -2.85 ± 0.16 (30 °C) and -2.33 ± 0.19 (37 °C).
With GGGAAGCAAUAUUACGAGUA, the “self-splicing fitness (ln)” value (37 °C) is -2.29 ± 0.36.
With GCGCAGCAAUAUUACGCUUU, the “self-splicing fitness (ln)” value reads like this: (30 °C) -1.39 ± 0.068; (37 °C) -0.38 ± 0.083.
The corresponding values for CGAUAGCAAUAUUACGCCCA are -1.46 ± 0.28 and 0.585 ± 0.16.
The corresponding values for AGACAGCAAUAUUACGUGCC are -0.679 ± 0.12 and -0.815 ± 0.17.
On to GGCCAGCAAUAUUACGGCGG, for which the “self-splicing fitness (ln)” value is -0.775 ± 0.1 (30 °C) and -1.53 ± 0.15 (37 °C).
CGCAAGCAAUAUUACGGGAC: the “self-splicing fitness (ln)” value by setting is: (30 °C) -3.18 ± 0.31; (37 °C) -2.52 ± 0.29.
With GAGGAGCAAUAUUACGGAUU, the “self-splicing fitness (ln)” value (30 °C) is -3.61 ± 0.18 and the “self-splicing fitness (ln)” value (37 °C) was -1.95 ± 0.17.
The matching figures for AGAUAGCAAUAUUACGGAGG: -4.37 ± 0.26 and -3.22 ± 0.26.
The corresponding values for GCAGAGCAAUAUUACGGAGG are -5.06 ± 0.25 and -2.14 ± 0.15.
The matching figures for GGGUAGCAAUAUUACGGAUA: -1.74 ± 0.25 and -1.08 ± 0.29.
As for CACAAGCAAUAUUACGUCAC, the “self-splicing fitness (ln)” value (30 °C) was -3.24 ± 0.19 and the “self-splicing fitness (ln)” value (37 °C) is -2.62 ± 0.22.
The matching figures for CACGAGCAAUAUUACGUCAC: -3.41 ± 0.2 and -3.18 ± 0.37.
Consider GAGAAGCAAUAUUACGAUUC, for which the “self-splicing fitness (ln)” value was -0.752 ± 0.094 (30 °C) and -0.653 ± 0.15 (37 °C).
The corresponding values for UGGCAGCAAUAUUACGGUCC are -0.382 ± 0.16 and 0.88 ± 0.13.
For GGGGAGCAAUAUUACGGCUC, the “self-splicing fitness (ln)” value (37 °C) was -0.173 ± 0.34.
In the case of UACCAGCAAUAUUACGAAAC, the “self-splicing fitness (ln)” value (30 °C) is -2.69 ± 0.23 and the “self-splicing fitness (ln)” value (37 °C) is -2.14 ± 0.27.
Regarding CUCAAGCAAUAUUACGCGUU, the “self-splicing fitness (ln)” value by setting is: (30 °C) -4.07 ± 0.46; (37 °C) -2.92 ± 0.3.
The matching figures for GGCGAGCAAUAUUACGGCUU: -0.682 ± 0.2 and -0.0819 ± 0.35.
With AGUCAGCAAUAUUACGAUCA, the “self-splicing fitness (ln)” value worked out at 0.171 ± 0.099 (30 °C) and 0.226 ± 0.11 (37 °C).
For the sequence CCAGAGCAAUAUUACGAGCG, the “self-splicing fitness (ln)” value was -0.698 ± 0.084 (30 °C) and -0.775 ± 0.14 (37 °C).
In the case of AUUGAGCAAUAUUACGUGAC, the “self-splicing fitness (ln)” value (37 °C) was -1.61 ± 0.45.
With AUUCAGCAAUAUUACGGAGA, the “self-splicing fitness (ln)” value was -1.48 ± 0.12 (30 °C) and -0.618 ± 0.11 (37 °C).
The corresponding values for CUCCAGCAAUAUUACGGUGG are -3.79 ± 0.19 and -2.42 ± 0.18.
The corresponding values for AGCCAGCAAUAUUACGAUUU are -2.3 ± 0.1 and -1.24 ± 0.11.
